Tests used:
HeLa Kyoto [1] = assay: solubility in G1/S (NP-40 vs SDS abundance) (log2 ratio); higher = more soluble; conditions: cell cycle stage: G1/S
HeLa Kyoto [2] = assay: thermal stability score vs G1/S (z-score of summed log2 fold changes over temperatures); higher = more thermally stable than in G1/S
HeLa Kyoto [3] = assay: melting temperature (median over replicates), in situ; higher = more thermally stable
HeLa Kyoto [4] = assay: solubility change mitosis vs G1/S (difference of NP-40 vs SDS log2 ratios) (log2 ratio difference); higher = more soluble in mitosis
[5] = cell cycle stage: early G1 (4.5 h after nocodazole release)
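Throughout, for melting temperature (median over replicates), in situ: HeLa Kyoto cells synchronized by double thymidine or nocodazole block, proteins quantified by TMT10plex mass spectrometry, three independent biological replicates.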
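Throughout, for solubility change mitosis vs G1/S (difference of NP-40 vs SDS log2 ratios): synchronized HeLa Kyoto cells (double thymidine block for G1/S, nocodazole release for mitosis), protein amounts in NP-40 versus SDS lysates quantified by mass spectrometry, three biological replicates.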
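Throughout, for solubility in G1/S (NP-40 vs SDS abundance): HeLa Kyoto cells arrested at G1/S by double thymidine block, proteins quantified by TMT10plex mass spectrometry in mild NP-40 versus SDS extracts, three biological replicates.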
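Throughout, for thermal stability score vs G1/S (z-score of summed log2 fold changes over temperatures): synchronized HeLa Kyoto cells, proteins quantified by TMT10plex mass spectrometry, three biological replicates, mitosis taken 0.5 h after nocodazole release, G1/S directly after double thymidine block.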

Row | Substance | solubility in G1/S (log2) (HeLa Kyoto [1]) | thermal stability score (HeLa Kyoto [2]; [5]) | thermal stability score (HeLa Kyoto [2]; cell cycle stage: mitosis) | melting temperature (HeLa Kyoto [3]; cell cycle stage: G1/S) [°C] | melting temperature (HeLa Kyoto [3]; cell cycle stage: mitosis) [°C] | solubility change mitosis (log2) (HeLa Kyoto [4])
1 | MPHLPLASFRPPFWGLRHSRGLPRFHSVSTQSEPHGSPISRRNREAKQKRLREKQATLEAEIAGESKSPAESIKAWRPKELVLYEIPTKPGEKKDVSGPLPPAYSPRYVEAAWYPWWVREGFFKPEYQARLPQATGETFSMCIPPPNVTGSLHIGHALTVAIQDALVRWHRMRGDQVLWVPGSDHAGIATQAVVEKQLWKERGVRRHELSREAFLREVWQWKEAKGGEICEQLRALGASLDWDRECFTMDVGSSVAVTEAFVRLYKAGLLYRNHQLVNWSCALRSAISDIEVENRPLPGHTQLRLPGCPTPVSFGLLFSVAFPVDGEPDAEVVVGTTRPETLPGDVAVAVHPDDSRYTHLHGRQLRHPLMGQPLPLITDYAVQPHVGTGAVKVTPAHSPADAEMGARHGLSPLNVIAEDGTMTSLCGDWLQGLHRFVAREKIMSVLSEWGLFRGLQNHPMVLPICSRSGDVIEYLLKNQWFVRCQEMGARAAKAVESGALELSPSFHQKNWQHWFSHIGDWCVSRQLWWGHQIPAYLVVEDHAQGEEDCWVVGRSEAEAREVAAELTGRPGAELTLERDPDVLDTWFSSALFPFSALGWPQETPDLARFYPLSLLETGSDLLLFWVGRMVMLGTQLTGQLPFSKVLLHPMVRDRQGRKMSKSLGNVLDPRDIISGVEMQVLQEKLRSGNLDPAELAIVAAAQKKDFPHGIPECGTDALRFTLCSHGVQAGDLHLSVSEVQSCRHFCNKIWNALRFILNALGEKFVPQPAEELSPSSPMDAWILSRLALAAQECERGFLTRELSLVTHALHHFWLHNLCDVYLEAVKPVLWHSPRPLGPPQVLFSCADLGLRLLAPLMPFLAEELWQRLPPRPGCPPAPSISVAPYPSACSLEHWRQPELERRFSRVQEVVQVLRALRATYQLTKARPRVLLQSSEPGDQGLFEAFLEPLGTLGYCGAVGLLPPGAAAPSGWAQAPLSDTAQVYMELQGLVDPQIQLPLLAARRYKLQKQLDSLTARTPSEGEAGTQRQQKLSSLQLELSKLDKAASHLRQLMDEPPAPGSPEL [VARS2] | -0.0605 | 0.335 | 0.452 | 52 | 52.1 | 0.0161
2 | MPYQYPALTPEQKKELSDIAHRIVAPGKGILAADESTGSIAKRLQSIGTENTEENRRFYRQLLLTADDRVNPCIGGVILFHETLYQKADDGRPFPQVIKSKGGVVGIKVDKGVVPLAGTNGETTTQGLDGLSERCAQYKKDGADFAKWRCVLKIGEHTPSALAIMENANVLARYASICQQNGIVPIVEPEILPDGDHDLKRCQYVTEKVLAAVYKALSDHHIYLEGTLLKPNMVTPGHACTQKFSHEEIAMATVTALRRTVPPAVTGITFLSGGQSEEEASINLNAINKCPLLKPWALTFSYGRALQASALKAWGGKKENLKAAQEEYVKRALANSLACQGKYTPSGQAGAAASESLFVSNHAY [ALDOA] | 0.345 | -1.95 | -2.35 | 58.2 | 58.5 | -0.0218
3 | MMAIRELKVCLLGDTGVGKSSIVCRFVQDHFDHNISPTIGASFMTKTVPCGNELHKFLIWDTAGQERFHSLAPMYYRGSAAAVIVYDITKQDSFYTLKKWVKELKEHGPENIVMAIAGNKCDLSDIREVPLKDAKEYAESIGAIVVETSAKNAINIEELFQGISRQIPPLDPHENGNNGTIKVEKPTMQASRRCC [RAB31] | -0.166 | -1.38 | -0.537 | 54.6 | 53.9 | 0.0123
4 | JMJD1C | -0.105 | 0.98 | 0.156 | 50.2 | 50.7 | -0.0573
5 | MLLGGPPRSPRSGTSPKGPWSSTGHVQFGKSPQTWPRRTRPRSPEPAAPSGVRGSTWTRRRDSPRRAGPTALSRYVGHLWMGRRPPSPEARGPVPRSSAASRARRSLASPGISPGPLTATIGGAVAGGGPRQGRAEAHKEVFPGQRVGKMAAPMELFCWSGGWGLPSVDLDSLAVLTYARFTGAPLKVHKISNPWQSPSGTLPALRTSHGEVISVPHKIITHLRKEKYNADYDLSARQGADTLAFMSLLEEKLLPVLVHTFWIDTKNYVEVTRKWYAEAMPFPLNFFLPGRMQRQYMERLQLLTGEHRPEDEEELEKELYREARECLTLLSQRLGSQKFFFGDAPASLDAFVFSYLALLLQAKLPSGKLQVHLRGLHNLCAYCTHILSLYFPWDGAEVPPQRQTPAGPETEEEPYRRRNQILSVLAGLAAMVGYALLSGIVSIQRATPARAPGTRTLGMAEEDEEE [MTX1] | 0.309 | 0.166 | -0.623 | 52.8 | 52.4 | -0.12
6 | MEGLLHYINPAHAISLLSALNEERLKGQLCDVLLIVGDQKFRAHKNVLAASSEYFQSLFTNKENESQTVFQLDFCEPDAFDNVLNYIYSSSLFVEKSSLAAVQELGYSLGISFLTNIVSKTPQAPFPTCPNRKKVFVEDDENSSQKRSVIVCQSRNEAQGKTVSQNQPDVSHTSRPSPSIAVKANTNKPHVPKPIEPLHNLSLTEKSWPKDSSVVYAKSLEHSGSLDDPNRISLVKRNAVLPSKPLQDREAMDDKPGVSGQLPKGKALELALKRPRPPVLSVCSSSETPYLLKETNKGNGQGEDRNLLYYSKLGLVIPSSGSGSGNQSIDRSGPLVKSLLRRSLSMDSQVPVYSPSIDLKSSQGSSSVSSDAPGNVLCALSQKSSLKDCSEKTALDDRPQVLQPHRLRSFSASQSTDREGASPVTEVRIKTEPSSPLSDPSDIIRVTVGDAATTAAASSSSVTRDLSLKTEDDQKDMSRLPAKRRFQADRRLPFKKLKVNEHGSPVSEDNFEEGSSPTLLDADFPDSDLNKDEFGELEGTRPNKKFKCKHCLKIFRSTAGLHRHVNMYHNPEKPYACDICHKRFHTNFKVWTHCQTQHGIVKNPSPASSSHAVLDEKFQRKLIDIVREREIKKALIIKLRRGKPGFQGQSSSQAQQVIKRNLRSRAKGAYICTYCGKAYRFLSQFKQHIKMHPGEKPLGVNKVAKPKEHAPLASPVENKEVYQCRLCNAKLSSLLEQGSHERLCRNAAVCPYCSLRFFSPELKQEHESKCEYKKLTCLECMRTFKSSFSIWRHQVEVHNQNNMAPTENFSLPVLDHNGDVTGSSRPQSQPEPNKVNHIVTTKDDNVFSDSSEQVNFDSEDSSCLPEDLSLSKQLKIQVKEEPVEEAEEEAPEASTAPKEAGPSKEASLWPCEKCGKMFTVHKQLERHQELLCSVKPFICHVCNKAFRTNFRLWSHFQSHMSQASEESAHKESEVCPVPTNSPSPPPLPPPPPLPKIQPLEPDSPTGLSENPTPATEKLFVPQESDTLFYHAPPLSAITFKRQFMCKLCHRTFKTAFSLWSHEQTHN [ZBTB21] | -0.0999 | 0.647 | 0.374 |  | 51.7 | -0.0564
